Experimental data: patent US20230257452A1 (GTINVENT, published 2023)

Assays:
[1] = molecular target: T1, mouse tau (isoform Tau-A) (mouse, UniProt P10637 2-733); test: sandwich ELISA on mouse brain homogenates (incl. wild type), S1D12 mAb capture
T1 construct: endogenous tau in mouse brain homogenate or plasma; also called endogenous mouse tau

[2] = molecular target: T2, full length human tau protein (2N4R, isoform Tau-F, 441 amino acids) (human, UniProt P10636 1-758); test: sandwich ELISA, S1D12 mAb capture, hT40 titrated, detection scAb, chemiluminescent
T2 construct: also called hT40; htau40
Protocol: (§1) Full length tau (hT40), at 1 μg/ml starting concentration was added to designated wells and double diluted across rest of the plates and left to incubate at R/T for 1 h. A series of detection scAbs with varying epitope recognition properties were added at 10 μg/ml to designated wells (FIG. 22). For colourimetric detection HRP conjugated anti-HuCk secondary antibody was used and the resulting immunoreaction was developed and absorbance at 450 nm measured as described previously. Cut-off point for a positive binding event was an absorbance value of 0.3 following background subtraction. In order to enhance the assay sensitivity, a chemiluminescent detection method was adopted where 50 μL SuperSignal ELISA Femto Substrate (Thermo Scientific) was added to each well following incubation with anti-HuCK HRP antibody and subsequent washing. The luminescence was read using Clariostar Plus microplate reader. A further modification to this protocol was done where various detection scAbs were directly conjugated with HRP and detected using chemiluminescent protocol as before.

[3] = molecular target: T2, full length human tau protein (2N4R, …); test: sandwich ELISA, S1D12 mAb capture, hT40 titrated, detection scAb at 10 ug/ml, colourimetric
Protocol: as §1

dGAE (tau 297-391) = molecular target: T3, dGAE (tau 297-391) (human, UniProt P10636 614-708); test: tau-tau immunoassay: scAb preincubated with 100 nM dGAE; blocked ligand: plate-bound dGA (1000 nM); bound dGAE detected with E2E8
T3 construct: also called dGAE95
Protocol: The adapted method is as follows: dGA (1000 nM) was adsorbed to a Nunc 96-well MaxiSorp plate and incubated for 1 h at 37° C. Plates were subsequently washed 3 times with PBST which was performed after each 1 h incubation. The plates were blocked with 2% (w/v) dried milk powder in PBS for 1 h at 37° C. […] The secondary antibody used was HRP-conjugated Anti-mouse IgG (1:1000 dilution, Sigma) and incubated at RT for 1 h. The plate was subsequently developed, and readings taken at absorbance 450 nm.

T2 sequence (P10636 other isoform, or with tags, fused parts or gaps limits assumed): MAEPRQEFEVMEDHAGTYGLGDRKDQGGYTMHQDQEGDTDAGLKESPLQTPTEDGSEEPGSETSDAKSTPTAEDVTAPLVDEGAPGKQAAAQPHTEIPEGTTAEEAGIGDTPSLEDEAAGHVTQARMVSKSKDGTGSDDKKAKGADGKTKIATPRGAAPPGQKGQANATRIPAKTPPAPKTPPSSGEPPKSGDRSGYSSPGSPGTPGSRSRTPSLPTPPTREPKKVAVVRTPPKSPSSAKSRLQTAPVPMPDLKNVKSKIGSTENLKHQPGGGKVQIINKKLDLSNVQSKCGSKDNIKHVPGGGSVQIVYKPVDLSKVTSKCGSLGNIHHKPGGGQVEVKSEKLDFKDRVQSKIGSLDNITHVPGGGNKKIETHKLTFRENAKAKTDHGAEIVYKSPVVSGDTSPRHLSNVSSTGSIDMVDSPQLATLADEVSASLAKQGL
T3 sequence (P10636 614-708 limits assumed): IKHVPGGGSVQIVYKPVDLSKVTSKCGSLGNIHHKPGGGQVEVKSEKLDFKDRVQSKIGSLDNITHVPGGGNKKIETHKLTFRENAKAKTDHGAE
T1 sequence (P10637 other isoform, or with tags, fused parts or gaps limits assumed): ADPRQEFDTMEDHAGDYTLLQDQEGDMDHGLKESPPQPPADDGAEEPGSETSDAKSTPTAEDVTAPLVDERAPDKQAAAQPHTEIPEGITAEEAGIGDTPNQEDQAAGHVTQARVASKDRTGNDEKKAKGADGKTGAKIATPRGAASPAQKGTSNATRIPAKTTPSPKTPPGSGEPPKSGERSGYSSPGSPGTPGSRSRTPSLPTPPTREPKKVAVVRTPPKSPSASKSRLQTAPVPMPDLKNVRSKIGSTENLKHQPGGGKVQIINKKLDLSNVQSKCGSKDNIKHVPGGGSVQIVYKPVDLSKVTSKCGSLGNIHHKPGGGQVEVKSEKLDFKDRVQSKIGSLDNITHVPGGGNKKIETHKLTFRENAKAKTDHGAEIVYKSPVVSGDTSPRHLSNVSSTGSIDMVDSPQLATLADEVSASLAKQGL

B1: S1G2 scAb (scFv)
scFv: QVQLQESGPSLVKPSQTLSLTCTVSGFSLTSNSVGWVRQAPGKAPEWVAGIDTDGEEGYNPALNSRLSITRDTSKSQVSLSLSSVTSEDTAVYYCGRSYRADGLAYGYVQAIDYWGPGLLVTVSSEGKSSGASGESKVDDQAVVTQPSSVSGSLGQRVSITCSGSFIGISSVGWFQQLPGSGLRTIIVASDGRPSGVPDRFSMSKSGNTATLTISSLQAEDEADYFCGSSDRTPYTGVFGSGTRLTVLG
notes: not shown: human C kappa domain and hexa-His tag of the scAb format
binding result [1]: binds | LoD (ng/ml) chemiluminescence detection [2]: 0.12 ng/mL | LoD (ng/ml) colourimetric detection [3]: 2 ng/mL | B50 (dGAE (tau 297-391)): 65 nM
